Molecular target: SZ*-GFP-Ub4 (HA-tagged) (UniProt P0CG63)
Assay: co-IP

fold increase of binding relative to the Ubx2-SZ*-GFP complex: 10 fold
B1: Ubx2-6xGly-3xFLAG (natural protein)
chain: MPVVNHEDSEFHLSHTEEDKLNEFQVITNFPPEDLPDVVRLLRNHGWQLEPALSRYFDGEWKGEPDQMGEPTQTSTPMAETLVPPALGPRPLLFTASLPVVRPLPANFRNDFRTIGLNGRSNTVWSMFESFSYDGNPFLFILLLIPRIINRLSATIFTFFCTLLSLHSISGGGNSGKPKISKVPKAPTRETHIPLAEILGDTKDKDAFCELKSFKPDISFNEALRIAKEEFKFMLLILVGDTYDTDTDTVDVNSKLLLEKILLNKKTLQYLRKIDNDLIIYLKCVHELEPWLVARQLGVRNTPEIFLIANVANKASHSETLPSQRLSILGKLKVNSLNRFLQSLTNVVEKYTPELVVNKTEMHELRMSREIKKLQEDAYKKSLEMDRIKAIEKEKSLKHAQDLKLNSTARQLKWLKACIDEIQPFETTGKQATLQFRTSSGKRFVKKFPSMTTLYQIYQSIGCHIYLAVYSSDPAEWSNALQDKIRQLSADDDMLCFKEGQLETATATTIEELGHIINNELTSFDLERGKLEFDFELVSPFPKYTVHPNEHMSVDQVPQLWPNGSLLVEALDEEDEEDEENEEQ

Reference: paper PMC8503845
